Laboratory results from article PMC4335507.

Target: GST-Ran Q69L, GTP-bound (UniProt Q9VZ23)
Assay: pull-down; GST-Ran loaded with GDP or GST-Ran Q69L loaded with GTP γS, or GST alone, on beads incubated with TIM-V5 expressed in S2 cells, 4 h at 4°C; bound TIM-V5 detected with anti-V5

V5-tagged wild-type TIM (TIMELESS) (from UniProt P49021 1-1398) (natural protein)
ratio of binding, Ran GTP over Ran GDP: 1.64
